Experimental data taken from patent publication US20240209078A1 (Amgen, published 2024).

B1: MS 15-B12 CC × I2L × G4 × scFc × G4 × CH3 15-E11 CC × I2L_GQ (bispecific antibody)
chain: QVQLQESGPGLVKPSETLSLTCTVSGGSISSSSYFWGWIRQPPGKCLEWIGNIYYSGSSNYNPSLKSRVTISVDTSKNQFSLKLSSVTAADTAVYYCARLPRGDRDAFDIWGQGTMVTVSSGGGGQGGGGQGGGGQDIVMTQSPSSLSASVGDRVTITCRASQGISNYLAWYQQKPGKVPKLLIYAASTLQSGVPSRFSGSGSGTDFTLTISSLQPEDFATYYCQQSYSTPFTFGCGTKVEIKSGGGGQEVQLVESGGGLVQPGGSLKLSCAASGFTFNKYAMNWVRQAPGKGMEWVARIRSKYNNYATYYADAVKDRFTISRDDSKNTLYLQMNNLKTEDTAVYYCVRAGNFGSSYISYFAYWGQGTLVTVSSGGGGQGGGGQGGGGQQTVVTQEPSLTVSPGGTVTITCGSSTGAVTSGNYPNWIQKKPGQAPRGLIGGTKFLAPGTPARFSGSLEGGKAALTLSGVQPEDEAEYYCVLYYSNRWVFGSGTKLTVLGGGGCPPCPAPELLGGPSVFLFPPKPKDTLMISRTPEVTCVVVDVSHEEPEVKFNWYVDGVEVHNAKTKPCEEQYGSTYRCVSVLTVLHQDWLNGKEYKCKVSNKALPAPIEKTISKAKGQPREPQVYTLPPSREEMTKNQVSLTCLVKGFYPSDIAVEWESNGQPENNYKTTPPVLDSDGSFFLYSKLTVDKSRWQQGNVFSCSVMHEALHNHYTQKSLSLSPGKGGGGQGGGGQGGGGQGGGGQGGGGQGGGGQCPPCPAPELLGGPSVFLFPPKPKDTLMISRTPEVTCVVVDVSHEEPEVKFNWYVDGVEVHNAKTKPCEEQYGSTYRCVSVLTVLHQDWLNGKEYKCKVSNKALPAPIEKTISKAKGQPREPQVYTLPPSREEMTKNQVSLTCLVKGFYPSDIAVEWESNGQPENNYKTTPPVLDSDGSFFLYSKLTVDKSRWQQGNVFSCSVMHEALHNHYTQKSLSLSPGKGGGGQVQLVQSGAEVKKPGASVKVSCKASGYTFTNYWMNWVRQAPGQCLEWMGNIAYGVKGTNYNQKFQGRVTMTVDTSSSTAYMELSRLRSDDTAVYYCATRYFYVMDYWGQGTLVTVSSGGGGQGGGGQGGGGQDIQMTQSPSSLSASVGDRVTITCRASQDISNYLNWYQQKPGKVPKLLIYYTSRLHSGVPSRFSGSGSGTDFTLTISSLQPEDVATYYCVQYAQFPLTFGCGTKVEIKSGGGGQEVQLVESGGGLVQPGGSLKLSCAASGFTFNKYAMNWVRQAPGKGMEWVARIRSKYNNYATYYADAVKDRFTISRDDSKNTLYLQMNNLKTEDTAVYYCVRAGNFGSSYISYFAYWGQGTLVTVSSGGGGQGGGGQGGGGQQTVVTQEPSLTVSPGGTVTITCGSSTGAVTSGNYPNWIQKKPGQAPRGLIGGTKFLAPGTPARFSGSLEGGKAALTLSGVQPEDEAEYYCVLYYSNRWVFGSGTKLTVL
B2: MS 15-B12 CC × 6H10.09 × (G4) × heFc (A) * heFc (B) × (G4) × CH3 15-E11 CC × 6H10.09 (Seq ID 326 + 327) (bispecific antibody)
chain 1: not shown
chain 2: DKTHTCPPCPAPELLGGPSVFLFPPKPKDTLMISRTPEVTCVVVDVSHEDPEVKFNWYVDGVEVHNAKTKPCEEQYGSTYRCVSVLTVLHQDWLNGKEYKCKVSNKALPAPIEKTISKAKGQPREPQVYTLPPSRKEMTKNQVSLTCLVKGFYPSDIAVEWESNGQPENNYKTTPPVLKSDGSFFLYSKLTVDKSRWQQGNVFSCSVMHEALHNHYTQKSLSLSPGKGGGGQVQLVQSGAEVKKPGASVKVSCKASGYTFTNYWMNWVRQAPGQCLEWMGNIAYGVKGTNYNQKFQGRVTMTVDTSSSTAYMELSRLRSDDTAVYYCATRYFYVMDYWGQGTLVTVSSGGGGSGGGGSGGGGSDIQMTQSPSSLSASVGDRVTITCRASQDISNYLNWYQQKPGKVPKLLIYYTSRLHSGVPSRFSGSGSGTDFTLTISSLQPEDVATYYCVQYAQFPLTFGCGTKVEIKSGGGGSEVQLVESGGGLVQPGGSLKLSCAASGFTFNKYAMNWVRQAPGKGMEWVARIRSKYNNYATYYADAVKDRFTISRDDSKNTLYLQMNNLKTEDTAVYYCVRAGNFGSSYISYFAYWGQGTLVTVSSGGGGSGGGGSGGGGSQTVVTQEPSLTVSPGGTVTITCGSSTGAVTSGNYPNWIQKKPGQAPRGLIGGTKFLAPGTPARFSGSLEGGKAALTLSGVQPEDEAEYYCVLYYSNRWVFGSGTKLTVL
B3: MS 15-B12 CC × I2L × (G4Q)3 × scFc × (G4Q)3 × CH3 15-E11 CC × I2L (bispecific antibody)
chain: QVQLQESGPGLVKPSETLSLTCTVSGGSISSSSYFWGWIRQPPGKCLEWIGNIYYSGSSNYNPSLKSRVTISVDTSKNQFSLKLSSVTAADTAVYYCARLPRGDRDAFDIWGQGTMVTVSSGGGGQGGGGQGGGGQDIVMTQSPSSLSASVGDRVTITCRASQGISNYLAWYQQKPGKVPKLLIYAASTLQSGVPSRFSGSGSGTDFTLTISSLQPEDFATYYCQQSYSTPFTFGCGTKVEIKSGGGGQEVQLVESGGGLVQPGGSLKLSCAASGFTFNKYAMNWVRQAPGKGMEWVARIRSKYNNYATYYADAVKDRFTISRDDSKNTLYLQMNNLKTEDTAVYYCVRAGNFGSSYISYFAYWGQGTLVTVSSGGGGQGGGGQGGGGQQTVVTQEPSLTVSPGGTVTITCGSSTGAVTSGNYPNWIQKKPGQAPRGLIGGTKFLAPGTPARFSGSLEGGKAALTLSGVQPEDEAEYYCVLYYSNRWVFGSGTKLTVLGGGGQGGGGQGGGGQCPPCPAPELLGGPSVFLFPPKPKDTLMISRTPEVTCVVVDVSHEEPEVKFNWYVDGVEVHNAKTKPCEEQYGSTYRCVSVLTVLHQDWLNGKEYKCKVSNKALPAPIEKTISKAKGQPREPQVYTLPPSREEMTKNQVSLTCLVKGFYPSDIAVEWESNGQPENNYKTTPPVLDSDGSFFLYSKLTVDKSRWQQGNVFSCSVMHEALHNHYTQKSLSLSPGKGGGGQGGGGQGGGGQGGGGQGGGGQGGGGQCPPCPAPELLGGPSVFLFPPKPKDTLMISRTPEVTCVVVDVSHEEPEVKFNWYVDGVEVHNAKTKPCEEQYGSTYRCVSVLTVLHQDWLNGKEYKCKVSNKALPAPIEKTISKAKGQPREPQVYTLPPSREEMTKNQVSLTCLVKGFYPSDIAVEWESNGQPENNYKTTPPVLDSDGSFFLYSKLTVDKSRWQQGNVFSCSVMHEALHNHYTQKSLSLSPGKGGGGQGGGGQGGGGQQVQLVQSGAEVKKPGASVKVSCKASGYTFTNYWMNWVRQAPGQCLEWMGNIAYGVKGTNYNQKFQGRVTMTVDTSSSTAYMELSRLRSDDTAVYYCATRYFYVMDYWGQGTLVTVSSGGGGQGGGGQGGGGQDIQMTQSPSSLSASVGDRVTITCRASQDISNYLNWYQQKPGKVPKLLIYYTSRLHSGVPSRFSGSGSGTDFTLTISSLQPEDVATYYCVQYAQFPLTFGCGTKVEIKSGGGGQEVQLVESGGGLVQPGGSLKLSCAASGFTFNKYAMNWVRQAPGKGMEWVARIRSKYNNYATYYADAVKDRFTISRDDSKNTLYLQMNNLKTEDTAVYYCVRAGNFGSSYISYFAYWGQGTLVTVSSGGGGQGGGGQGGGGQQTVVTQEPSLTVSPGGTVTITCGSSTGAVTSGNYPNWIQKKPGQAPRGLIGGTKFLAPGTPARFSGSLEGGKAALTLSGVQPEDEAEYYCVLYYSNRWVFGSGTKLTVL
B4: CH3 15-E11 CC × I2L × (G4Q)3 × scFc × (G4Q)3 × MS 15-B12 CC × I2L (bispecific antibody)
chain: QVQLVQSGAEVKKPGASVKVSCKASGYTFTNYWMNWVRQAPGQCLEWMGNIAYGVKGTNYNQKFQGRVTMTVDTSSSTAYMELSRLRSDDTAVYYCATRYFYVMDYWGQGTLVTVSSGGGGQGGGGQGGGGQDIQMTQSPSSLSASVGDRVTITCRASQDISNYLNWYQQKPGKVPKLLIYYTSRLHSGVPSRFSGSGSGTDFTLTISSLQPEDVATYYCVQYAQFPLTFGCGTKVEIKSGGGGQEVQLVESGGGLVQPGGSLKLSCAASGFTFNKYAMNWVRQAPGKGMEWVARIRSKYNNYATYYADAVKDRFTISRDDSKNTLYLQMNNLKTEDTAVYYCVRAGNFGSSYISYFAYWGQGTLVTVSSGGGGQGGGGQGGGGQQTVVTQEPSLTVSPGGTVTITCGSSTGAVTSGNYPNWIQKKPGQAPRGLIGGTKFLAPGTPARFSGSLEGGKAALTLSGVQPEDEAEYYCVLYYSNRWVFGSGTKLTVLGGGGQGGGGQGGGGQCPPCPAPELLGGPSVFLFPPKPKDTLMISRTPEVTCVVVDVSHEEPEVKFNWYVDGVEVHNAKTKPCEEQYGSTYRCVSVLTVLHQDWLNGKEYKCKVSNKALPAPIEKTISKAKGQPREPQVYTLPPSREEMTKNQVSLTCLVKGFYPSDIAVEWESNGQPENNYKTTPPVLDSDGSFFLYSKLTVDKSRWQQGNVFSCSVMHEALHNHYTQKSLSLSPGKGGGGQGGGGQGGGGQGGGGQGGGGQGGGGQCPPCPAPELLGGPSVFLFPPKPKDTLMISRTPEVTCVVVDVSHEEPEVKFNWYVDGVEVHNAKTKPCEEQYGSTYRCVSVLTVLHQDWLNGKEYKCKVSNKALPAPIEKTISKAKGQPREPQVYTLPPSREEMTKNQVSLTCLVKGFYPSDIAVEWESNGQPENNYKTTPPVLDSDGSFFLYSKLTVDKSRWQQGNVFSCSVMHEALHNHYTQKSLSLSPGKGGGGQGGGGQGGGGQQVQLQESGPGLVKPSETLSLTCTVSGGSISSSSYFWGWIRQPPGKCLEWIGNIYYSGSSNYNPSLKSRVTISVDTSKNQFSLKLSSVTAADTAVYYCARLPRGDRDAFDIWGQGTMVTVSSGGGGQGGGGQGGGGQDIVMTQSPSSLSASVGDRVTITCRASQGISNYLAWYQQKPGKVPKLLIYAASTLQSGVPSRFSGSGSGTDFTLTISSLQPEDFATYYCQQSYSTPFTFGCGTKVEIKSGGGGQEVQLVESGGGLVQPGGSLKLSCAASGFTFNKYAMNWVRQAPGKGMEWVARIRSKYNNYATYYADAVKDRFTISRDDSKNTLYLQMNNLKTEDTAVYYCVRAGNFGSSYISYFAYWGQGTLVTVSSGGGGQGGGGQGGGGQQTVVTQEPSLTVSPGGTVTITCGSSTGAVTSGNYPNWIQKKPGQAPRGLIGGTKFLAPGTPARFSGSLEGGKAALTLSGVQPEDEAEYYCVLYYSNRWVFGSGTKLTVL

Key:
Experiment in all cases: cell-based or functional assay
[1] = biological target: T1, human CDH3 (Cadherin-3, P-Cadherin) (human, UniProt P22223 108-829)
human MSLN (mesothelin) [2] = biological target: T2, human MSLN (mesothelin) (human, UniProt Q13421 37-598)
[3] = biological target: T1, human CDH3 (Cadherin-3, P-Cadherin); remark: listed apart in the source
human MSLN (mesothelin) [4] = biological target: T2, human MSLN (mesothelin); remark: listed apart in the source
human MSLN = human MSLN (human, UniProt Q13421 37-598)
human CDH3 = human CDH3 (human, UniProt P22223 108-829)

Row | Binder | cytotoxicity EC50, GSU KO MSLN cells [1] [nM] | cytotoxicity EC50, GSU KO CDH3 cells (human MSLN (mesothelin) [2]) [nM] | cytotoxicity EC50, HCT 116 KO MSLN cells [3] [nM] | cytotoxicity EC50, HCT 116 KO CDH3 cells (human MSLN (mesothelin) [4]) [nM] | EC50 GSU KO CDH3 (cytotoxicity; cells CDH3-, MSLN+) (human MSLN) [nM] | EC50 GSU wt (cytotoxicity; cells CDH3+, MSLN+) (human MSLN) [nM] | Fold selectivity gap, GSU KO CDH3 against GSU wt (human MSLN) [fold] | EC50 GSU KO MSLN (cytotoxicity; cells CDH3+, MSLN-) (human CDH3) [nM] | EC50 GSU wt (cytotoxicity; cells CDH3+, MSLN+) (human CDH3) [nM] | Fold selectivity gap, GSU KO MSLN against GSU wt (human CDH3) [fold]
1 | B1 | 0.502 | 0.115 | 0.001 | 0.0445 | – | – | – | – | – | –
2 | B2 | – | – | – | – | 0.391 | 0.0032 | 121 | 0.533 | 0.0032 | 165
3 | B3 | 1.73 | 2.9 | 0.0035 | 0.0292 | – | – | – | – | – | –
4 | B4 | 3.33 | 0.171 | 0.0085 | 0.0226 | – | – | – | – | – | –
